# Data published in IntAct's records for PubMed 31695625.
# Key:
# [1] = target: T1, SLC2A9, Q9NRM0-1
# T1 sequence: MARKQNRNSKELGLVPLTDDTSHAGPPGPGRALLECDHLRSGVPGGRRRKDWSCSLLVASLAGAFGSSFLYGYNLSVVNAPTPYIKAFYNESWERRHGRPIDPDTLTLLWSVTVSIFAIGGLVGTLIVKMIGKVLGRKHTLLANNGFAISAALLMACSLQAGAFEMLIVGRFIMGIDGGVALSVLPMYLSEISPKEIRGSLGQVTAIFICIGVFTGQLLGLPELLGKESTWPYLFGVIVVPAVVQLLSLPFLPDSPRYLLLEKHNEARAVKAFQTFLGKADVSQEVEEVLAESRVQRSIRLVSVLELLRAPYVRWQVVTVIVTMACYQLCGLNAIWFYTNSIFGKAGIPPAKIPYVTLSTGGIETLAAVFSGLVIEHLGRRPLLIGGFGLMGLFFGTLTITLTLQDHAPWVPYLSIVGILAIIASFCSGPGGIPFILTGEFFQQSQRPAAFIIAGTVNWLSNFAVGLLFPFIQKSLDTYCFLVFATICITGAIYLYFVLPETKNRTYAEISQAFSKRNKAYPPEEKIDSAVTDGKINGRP
# [2] = target: T2, SLC2A9, Q9NRM0-2
# T2 sequence: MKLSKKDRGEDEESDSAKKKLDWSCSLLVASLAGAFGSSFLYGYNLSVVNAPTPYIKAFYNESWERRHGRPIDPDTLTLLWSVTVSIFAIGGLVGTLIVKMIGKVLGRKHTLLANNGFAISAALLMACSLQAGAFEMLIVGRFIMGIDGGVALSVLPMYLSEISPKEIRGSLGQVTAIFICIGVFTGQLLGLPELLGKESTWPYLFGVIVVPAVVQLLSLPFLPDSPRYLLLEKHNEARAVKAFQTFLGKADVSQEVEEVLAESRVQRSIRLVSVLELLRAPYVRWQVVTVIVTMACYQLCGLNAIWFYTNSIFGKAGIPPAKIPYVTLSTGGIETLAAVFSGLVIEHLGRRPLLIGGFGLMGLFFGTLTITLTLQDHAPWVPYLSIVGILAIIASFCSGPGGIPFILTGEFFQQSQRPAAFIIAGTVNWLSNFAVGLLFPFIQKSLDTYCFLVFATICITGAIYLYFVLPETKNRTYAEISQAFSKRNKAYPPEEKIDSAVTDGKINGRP
effect of a mutation on the interaction [1],effect of a mutation on the interaction [2],Substance
with no effect,with no effect,Integral membrane protein 2B (Homo sapiens) (from UniProt Q9Y287) E261A
decreasing interaction strength,,Integral membrane protein 2B (Homo sapiens) (from UniProt Q9Y287) N170Q
